The source of these data is patent US20210107983A1 (Boehringer Ingelheim, published 2021).

The target of experiment [1] is T1, Cyno B7H6-His (cynomolgus monkey).
T1 construct: also called CyB7H6; cyB7-H6
T1 chain: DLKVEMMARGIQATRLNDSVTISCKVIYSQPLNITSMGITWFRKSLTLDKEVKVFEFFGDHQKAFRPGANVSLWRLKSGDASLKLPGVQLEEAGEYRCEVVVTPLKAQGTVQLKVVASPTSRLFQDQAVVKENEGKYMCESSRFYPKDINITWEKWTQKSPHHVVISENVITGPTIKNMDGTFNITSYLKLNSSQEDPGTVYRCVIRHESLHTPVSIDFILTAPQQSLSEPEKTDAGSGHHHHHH
In words: ratio of SPR KDs cyno/human.

The target of experiment [2] is T2, Cyno CD3 E+G HuFc-6xHis (cynomolgus monkey).
T2 construct: also called CyCD3E+G-hFc; cyCD3
T2 sequence (chain, as listed by the source limits assumed): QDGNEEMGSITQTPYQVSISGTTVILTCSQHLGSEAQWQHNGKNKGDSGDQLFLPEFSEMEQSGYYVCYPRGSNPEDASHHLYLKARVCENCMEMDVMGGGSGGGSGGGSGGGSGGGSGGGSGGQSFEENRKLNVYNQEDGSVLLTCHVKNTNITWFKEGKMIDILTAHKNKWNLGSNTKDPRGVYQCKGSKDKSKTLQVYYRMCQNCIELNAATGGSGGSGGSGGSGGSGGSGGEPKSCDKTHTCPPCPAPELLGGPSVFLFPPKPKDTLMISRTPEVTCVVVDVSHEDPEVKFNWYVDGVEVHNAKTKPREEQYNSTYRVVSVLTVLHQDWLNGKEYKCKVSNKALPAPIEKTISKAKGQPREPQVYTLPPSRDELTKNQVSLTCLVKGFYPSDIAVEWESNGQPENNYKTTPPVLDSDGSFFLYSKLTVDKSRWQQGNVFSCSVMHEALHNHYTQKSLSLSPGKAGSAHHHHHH
In words: ratio of SPR KDs cyno/human.

The target in experiment [3] is T3, chicken egg white lysozyme (chicken, UniProt P00698 19-147).
T3 construct: unrelated positively charged protein, amine-coupled to the chip; also called Lysozyme (positive)
T3 sequence (P00698 19-147): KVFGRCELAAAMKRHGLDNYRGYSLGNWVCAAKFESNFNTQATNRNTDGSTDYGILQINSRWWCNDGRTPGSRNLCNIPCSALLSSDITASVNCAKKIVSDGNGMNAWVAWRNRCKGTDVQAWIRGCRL
In words: SPR, 1 µM binder over immobilized lysozyme. Summed up: (§1)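 Non-specific binding tested with samples at 1 μM in HBS-EP at 25 °C, 5 μL/min, over lysozyme or trypsin inhibitor amine-coupled to CM5 chip (3000–5000 RU). Association 10 min, dissociation 15 min.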

Experiment [4] concerns the target T4, Human CD3 E+G HuFc-6xHis (human).
T4 construct: also called HuCD3E+G-hFc; huCD3
In words: SPR, CD3E+G-hFc immobilized, binder analyte. An outline of the steps:
(§2)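 On a ProteOn XPR36, human and cyno CD3E+G-hFc were amine-coupled to a GLM chip at 0.4, 0.2 and 0.1 μg/mL in 10 mM acetate pH 4.5. B7H6/CD3 binding protein (0–100 nM) flowed in HBS-EP+ at 30 μL/min, with 300 s association and 600 s dissociation. Interspot and blank responses were subtracted.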

For experiment [5], the target named is T2, Cyno CD3 E+G HuFc-6xHis. In words: SPR, CD3E+G-hFc immobilized, binder analyte. Summed up:
as §2

Experiment [6] addresses T1, Cyno B7H6-His. In words: SPR, binder captured on Protein A/G, B7H6 analyte. An outline of the steps:
(§3)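 B7H6/CD3 binder captured (~700 RU) on a Protein A/G CM5 surface in HBS-EP+. Human or cyno B7H6 injected at 0–100 nM and human B7H1 at 0 nM and 1 μM, 300 s association and 1200 s dissociation. Data double-referenced against the reference flow cell and blank.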

In experiment [7] the target is T5, Human B7H1 (human, UniProt Q9NZQ7 20-239).
T5 construct: also called HuB7H1; huB7-H1
T5 sequence (Q9NZQ7 other isoform, or with tags, fused parts or gaps limits assumed): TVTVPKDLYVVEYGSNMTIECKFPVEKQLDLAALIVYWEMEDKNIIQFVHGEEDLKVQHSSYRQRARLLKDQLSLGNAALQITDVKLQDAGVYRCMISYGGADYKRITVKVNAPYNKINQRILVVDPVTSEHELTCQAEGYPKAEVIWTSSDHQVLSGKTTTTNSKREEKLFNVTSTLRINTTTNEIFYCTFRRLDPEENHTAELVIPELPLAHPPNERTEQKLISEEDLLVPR
In words: SPR, binder captured on Protein A/G, HuB7H1 analyte. Summed up:
as §3

Experiment [8] has as its target T6, trypsin inhibitor from Glycine max soybean (Glycine max (soybean)).
T6 construct: unrelated negatively charged protein, amine-coupled to the chip
In words: SPR, 1 µM binder over immobilized trypsin inhibitor. Summed up:
as §1

For experiment [9], the target named is T7, CD3 on human T-cells (human, UniProt P07766;P09693).
T7 construct: endogenous, on the surface of purified T-cells; also called human T-cells expressing CD3
T7 sequence (P07766 23-207, chain 1 of 2): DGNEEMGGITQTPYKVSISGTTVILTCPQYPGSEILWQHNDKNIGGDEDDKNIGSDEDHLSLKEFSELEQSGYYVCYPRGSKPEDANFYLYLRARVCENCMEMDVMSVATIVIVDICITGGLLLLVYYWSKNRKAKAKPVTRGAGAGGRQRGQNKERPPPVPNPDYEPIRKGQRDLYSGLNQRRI
T7 sequence (P09693 23-182, chain 2 of 2): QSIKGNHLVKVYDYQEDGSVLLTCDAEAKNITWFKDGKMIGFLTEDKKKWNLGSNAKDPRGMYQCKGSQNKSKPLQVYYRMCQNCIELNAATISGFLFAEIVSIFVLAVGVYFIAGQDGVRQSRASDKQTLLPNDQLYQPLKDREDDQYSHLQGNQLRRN
In words: flow cytometry on purified human T-cells, PE anti-human secondary antibody. Here is the method:
T-cells were isolated by negative selection using the Pan T Cell Isolation Kit II (Miltenyi Biotec #130-091-156). In brief, cells were resuspended in 40 μl buffer PBS/0.5% BSA (Gibco ref #041-94553 M)/2 mM EDTA (Invitrogen ref #15575-038) per 10 Mio cells and incubated with 10 μl of Biotin-Antibody cocktail per 10 Mio cells for 5 min at 4° C. Subsequently, 30 μl buffer and 20 μl anti-biotin MACS® MicroBeds/10 million cells were added and incubated for 10 min at 4° C. Subsequently the mixture was placed in a pre-rinsed 25LS column (Miltenyi Biotec #130-042-401) in the magnetic field of suitable MACS® microbeads separator (Miltenyi Biotec). Flow-through was collected and washed in assay medium.
T-cells were stained with increasing concentrations of two-step purified B7H6/CD3 binding proteins in FACS buffer (PBS/0.5% BSA/0.05% sodium azide). Bound molecules were detected with PE-conjugated anti-human secondary antibody (Sigma-Aldrich, #P8047).

T4 sequence (chain, as listed by the source limits assumed): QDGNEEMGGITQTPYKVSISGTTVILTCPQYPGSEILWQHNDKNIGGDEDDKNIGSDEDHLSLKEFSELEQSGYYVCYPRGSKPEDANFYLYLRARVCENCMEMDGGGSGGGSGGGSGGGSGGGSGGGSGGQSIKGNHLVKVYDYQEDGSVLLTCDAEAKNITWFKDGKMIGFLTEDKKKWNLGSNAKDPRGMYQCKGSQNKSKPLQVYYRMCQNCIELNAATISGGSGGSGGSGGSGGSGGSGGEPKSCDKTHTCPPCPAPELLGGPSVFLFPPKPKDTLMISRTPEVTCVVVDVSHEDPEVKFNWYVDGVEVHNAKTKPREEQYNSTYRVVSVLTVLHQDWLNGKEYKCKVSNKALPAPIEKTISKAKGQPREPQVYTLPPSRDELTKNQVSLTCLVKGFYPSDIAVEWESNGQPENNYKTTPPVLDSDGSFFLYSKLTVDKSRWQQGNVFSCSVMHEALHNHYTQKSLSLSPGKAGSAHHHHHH
T6 sequence (P01070 25-205): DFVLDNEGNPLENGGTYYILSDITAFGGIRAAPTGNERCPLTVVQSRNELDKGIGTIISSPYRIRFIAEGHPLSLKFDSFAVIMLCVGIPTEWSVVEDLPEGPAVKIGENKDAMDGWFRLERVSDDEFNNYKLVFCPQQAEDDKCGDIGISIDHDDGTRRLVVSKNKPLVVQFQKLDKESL

B1: B7H6#14/CD3#2 (bispecific antibody, human IgG1, kappa, L234A L235A)
chain 1: DIQMTQSPSSLSASVGDRVTITCKASQNVGKYVAWYQQKPGKAPKSLIYSASNRYDGVPSRFSGSGSGTDFTLTISSLQPEDFATYFCQQYISYPLTFGAGTKLEIKRTVAAPSVFIFPPSDEQLKSGTASVVCLLNNFYPREAKVQWKVDNALQSGNSQESVTEQDSKDSTYSLSSTLTLSKADYEKHKVYACEVTHQGLSSPVTKSFNRGECGGGGSEGKSSGSGSESKSTEGKSSGSGSESKSTGGGGSQVQLVQSGAEVKKPGASVKVSCKASGYTFTNYWMNWMKQAPGQGLEWIGGIYLNGDSTDYNEKFKGKVTMTVDTSTSTVYMELSSLRSEDTAVYYCTRRGDYFGDFWGQGTLVTVSSASTKGPSVFPLAPSSKSTSGGTAALGCLVKDYFPEPVTVSWNSGALTSGVHTFPAVLQSSGLYSLSSVVTVPSSSLGTQTYICNVNHKPSNTKVDKRVEPKSCDKTHTCPPCPAPEAAGGPSVFLFPPKPKDTLMISRTPEVTCVVVDVSHEDPEVKFNWYVDGVEVHNAKTKPREEQYNSTYRVVSVLTVLHQDWLNGKEYKCKVSNKALPAPIEKTISKAKGQPREPQVYTLPPSREEMTKNQVSLWCLVKGFYPSDIAVEWESNGQPENNYKTTPPVLDSDGSFFLYSKLTVDKSRWQQGNVFSCSVMHEALHNHYTQKSLSLSPG
chain 2: not shown
notes: scFab-Fc heterodimer
Consider B1, for which the “cy/hu B7-H6” value in experiment [1] stood at 0.9. Besides, in [2], the “cy/hu CD3” value is 1. The “Non-specific binding (RU)” value was determined as 11.2 RU in experiment [3] and 12.2 RU in experiment [8]. In addition, the Kd in experiment [4] is 16.9 nM; in experiment [5], 17.7 nM; in experiment [6] it was 1 nM. Moreover, the results for the binding result in experiment [7] and in experiment [9] were “no binding (tested: 1 µM)” and “binds”, respectively.

B2: B7H6#23/CD3#3 (bispecific antibody, human IgG1, kappa, L234A L235A)
chain 1: DIQMTQSPSSLSASVGDRVTITCKASQNVGKYVAWYQQKPGKAPKSLIYSASNRYDAVPSRFSGSGSGTDFTLTISSLQPEDFATYFCQQYISYPLTFGAGTKLEIKRTVAAPSVFIFPPSDEQLKSGTASVVCLLNNFYPREAKVQWKVDNALQSGNSQESVTEQDSKDSTYSLSSTLTLSKADYEKHKVYACEVTHQGLSSPVTKSFNRGECGGGGSEGKSSGSGSESKSTEGKSSGSGSESKSTGGGGSQVQLVQSGAEVKKPGASVKVSCKASGYTFTSYWMNWMKQAPGQGLEWIGGIYLSGESTDYNEKFKGKVTMTVDTSTSTVYMELSSLRSEDTAVYYCTRRGDYFGDFWGQGTLVTVSSASTKGPSVFPLAPSSKSTSGGTAALGCLVKDYFPEPVTVSWNSGALTSGVHTFPAVLQSSGLYSLSSVVTVPSSSLGTQTYICNVNHKPSNTKVDKRVEPKSCDKTHTCPPCPAPEAAGGPSVFLFPPKPKDTLMISRTPEVTCVVVDVSHEDPEVKFNWYVDGVEVHNAKTKPREEQYNSTYRVVSVLTVLHQDWLNGKEYKCKVSNKALPAPIEKTISKAKGQPREPQVYTLPPSREEMTKNQVSLWCLVKGFYPSDIAVEWESNGQPENNYKTTPPVLDSDGSFFLYSKLTVDKSRWQQGNVFSCSVMHEALHNHYTQKSLSLSPG
chain 2: not shown
notes: scFab-Fc heterodimer
Regarding B2, the “cy/hu B7-H6” value in experiment [1] came to 0.9. In experiment [2], the “cy/hu CD3” value amounted to 0.9. For the same molecule, the “Non-specific binding (RU)” value came to 18.9 RU in experiment [3] and 38.7 RU in experiment [8]. Besides, the Kd in experiment [4] stood at 13.8 nM; in experiment [5] it was 11.9 nM; in experiment [6] it was 1.9 nM. Also, the binding result in [7] was “no binding (tested: 1 µM)”; in experiment [9] it was “binds”.

B3: B7H6#23/CD3#4 (bispecific antibody, human IgG1, kappa, L234A L235A)
chain 1: DIQMTQSPSSLSASVGDRVTITCKASQNVGKYVAWYQQKPGKAPKSLIYSASNRYDAVPSRFSGSGSGTDFTLTISSLQPEDFATYFCQQYISYPLTFGAGTKLEIKRTVAAPSVFIFPPSDEQLKSGTASVVCLLNNFYPREAKVQWKVDNALQSGNSQESVTEQDSKDSTYSLSSTLTLSKADYEKHKVYACEVTHQGLSSPVTKSFNRGECGGGGSEGKSSGSGSESKSTEGKSSGSGSESKSTGGGGSQVQLVQSGAEVKKPGASVKVSCKASGYTFTSYWMNWMKQAPGQGLEWIGGIYLSGESTDYNEKFKGKVTMTVDTSTSTVYMELSSLRSEDTAVYYCTRRGDYFGDFWGQGTLVTVSSASTKGPSVFPLAPSSKSTSGGTAALGCLVKDYFPEPVTVSWNSGALTSGVHTFPAVLQSSGLYSLSSVVTVPSSSLGTQTYICNVNHKPSNTKVDKRVEPKSCDKTHTCPPCPAPEAAGGPSVFLFPPKPKDTLMISRTPEVTCVVVDVSHEDPEVKFNWYVDGVEVHNAKTKPREEQYNSTYRVVSVLTVLHQDWLNGKEYKCKVSNKALPAPIEKTISKAKGQPREPQVYTLPPSREEMTKNQVSLWCLVKGFYPSDIAVEWESNGQPENNYKTTPPVLDSDGSFFLYSKLTVDKSRWQQGNVFSCSVMHEALHNHYTQKSLSLSPG
chain 2: not shown
notes: scFab-Fc heterodimer
For the molecule B3, the “cy/hu B7-H6” value in experiment [1] is 1. For the same molecule, the “cy/hu CD3” value in [2] stood at 0.9. Moreover, the results for the “Non-specific binding (RU)” value in experiment [3] and in [8] were 6.8 RU and 20.7 RU, respectively. For the same molecule, the Kd in experiment [4] came out at 3.8 nM; in [5] it was 3.6 nM; in experiment [6] it was 1.7 nM. Also, the binding result is recorded as “no binding (tested: 1 µM)” in [7] and “binds” in [9].

B4: B7H6#14/CD3#4 (bispecific antibody, human IgG1, kappa, L234A L235A)
chain 1: DIQMTQSPSSLSASVGDRVTITCKASQNVGKYVAWYQQKPGKAPKSLIYSASNRYDGVPSRFSGSGSGTDFTLTISSLQPEDFATYFCQQYISYPLTFGAGTKLEIKRTVAAPSVFIFPPSDEQLKSGTASVVCLLNNFYPREAKVQWKVDNALQSGNSQESVTEQDSKDSTYSLSSTLTLSKADYEKHKVYACEVTHQGLSSPVTKSFNRGECGGGGSEGKSSGSGSESKSTEGKSSGSGSESKSTGGGGSQVQLVQSGAEVKKPGASVKVSCKASGYTFTNYWMNWMKQAPGQGLEWIGGIYLNGDSTDYNEKFKGKVTMTVDTSTSTVYMELSSLRSEDTAVYYCTRRGDYFGDFWGQGTLVTVSSASTKGPSVFPLAPSSKSTSGGTAALGCLVKDYFPEPVTVSWNSGALTSGVHTFPAVLQSSGLYSLSSVVTVPSSSLGTQTYICNVNHKPSNTKVDKRVEPKSCDKTHTCPPCPAPEAAGGPSVFLFPPKPKDTLMISRTPEVTCVVVDVSHEDPEVKFNWYVDGVEVHNAKTKPREEQYNSTYRVVSVLTVLHQDWLNGKEYKCKVSNKALPAPIEKTISKAKGQPREPQVYTLPPSREEMTKNQVSLWCLVKGFYPSDIAVEWESNGQPENNYKTTPPVLDSDGSFFLYSKLTVDKSRWQQGNVFSCSVMHEALHNHYTQKSLSLSPG
chain 2: not shown
notes: scFab-Fc heterodimer
As for B4, the “cy/hu B7-H6” value in experiment [1] came to 0.8. Moreover, the “cy/hu CD3” value in [2] was found to be 1.1. Moreover, the “Non-specific binding (RU)” value in experiment [3] was determined as 8.8 RU; in [8], 22.6 RU. Besides, the Kd came to 7.6 nM in experiment [4], 8.5 nM in experiment [5] and 1.1 nM in experiment [6]. Further, the binding result is “no binding (tested: 1 µM)” in experiment [7] and “binds” in experiment [9].
